Data from patent US20260217847A1.

Legend:
[1] = target: TfR1 on human erythroleukemia TF-1 cells (human) (UniProt P02786); assay: cell-based or functional assay
[2] = target: TfR1 protein stably expressed on CHO-K1-TfR1 cells (UniProt P02786); assay: cell-based or functional assay
Sequence of TfR1 protein stably expressed on CHO-K1-TfR1 cells (P02786 whole entry): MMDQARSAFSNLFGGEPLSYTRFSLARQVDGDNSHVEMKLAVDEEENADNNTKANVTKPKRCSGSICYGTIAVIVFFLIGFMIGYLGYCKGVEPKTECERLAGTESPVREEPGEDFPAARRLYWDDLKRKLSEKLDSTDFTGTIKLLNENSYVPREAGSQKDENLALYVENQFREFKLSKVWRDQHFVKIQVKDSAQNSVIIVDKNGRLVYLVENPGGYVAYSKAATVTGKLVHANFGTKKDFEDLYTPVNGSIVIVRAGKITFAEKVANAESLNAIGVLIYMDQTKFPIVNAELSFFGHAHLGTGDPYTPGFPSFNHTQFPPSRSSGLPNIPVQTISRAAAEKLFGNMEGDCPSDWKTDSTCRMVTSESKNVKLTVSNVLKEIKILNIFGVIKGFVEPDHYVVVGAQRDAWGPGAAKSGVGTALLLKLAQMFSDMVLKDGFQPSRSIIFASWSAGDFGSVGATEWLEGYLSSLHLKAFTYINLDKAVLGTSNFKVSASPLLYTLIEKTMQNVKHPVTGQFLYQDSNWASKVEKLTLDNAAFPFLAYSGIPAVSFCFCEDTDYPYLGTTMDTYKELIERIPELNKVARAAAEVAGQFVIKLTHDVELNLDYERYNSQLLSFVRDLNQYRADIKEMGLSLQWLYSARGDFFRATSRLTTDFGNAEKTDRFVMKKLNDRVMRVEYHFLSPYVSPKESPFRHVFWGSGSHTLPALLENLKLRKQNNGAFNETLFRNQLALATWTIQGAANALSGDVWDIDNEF

Sequence of TfR1 on human erythroleukemia TF-1 cells (human) (P02786 whole entry): as above
Sequence of Tab4, pabinafusp alfa targeting humanized TfR1 (antibody) (VH): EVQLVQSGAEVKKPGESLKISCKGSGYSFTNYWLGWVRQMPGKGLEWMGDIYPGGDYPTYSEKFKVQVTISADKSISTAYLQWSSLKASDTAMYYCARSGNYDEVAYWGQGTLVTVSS
Sequence of Tab4, pabinafusp alfa targeting humanized TfR1 (antibody) (VL): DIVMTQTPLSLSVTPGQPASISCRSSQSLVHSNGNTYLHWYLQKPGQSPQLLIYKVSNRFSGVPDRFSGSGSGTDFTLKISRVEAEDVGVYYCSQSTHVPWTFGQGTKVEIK

TF-1 cell internalization, fold (MFI at 37° C. to MFI at 4° C.) [1] [fold]	TF-1 cell internalization, pHrodo label, 4° C. MFI (background value) [1] [MFI]	TF-1 cell internalization, pHrodo label, 37° C. MFI [1] [MFI]	CHO-K1-TfR1 internalization, fold (MFI at 37° C. to MFI at 4° C.) [2] [fold]	CHO-K1-TfR1 internalization, pHrodo label, 4° C. MFI (background value) [2] [MFI]	CHO-K1-TfR1 internalization, pHrodo label, 37° C. MFI [2] [MFI]	Substance
1.83	712	1300	2.36	520	1230	Tab4, pabinafusp alfa targeting humanized TfR1 (antibody)
1.01	471	476	1.53	464	711	hIgG isotype control (antibody)
